Assay [1] deals with SARS-CoV-1 RBD-5GS-1TD0 (SARS-CoV-1 | not stated). Put plainly: SDS-PAGE.
Assay [2] concerns the target SARS-CoV-2 RBD-5GS-1TD0 (SARS-CoV-2 | not stated) (UniProt P0DTC2). Put plainly: SDS-PAGE.

This note sets out measurements from article PMC7523099.

In the case of “SARS-CoV-1 RBD-5GS-1TD0 (domain or fragment)”, the stoichiometry N (commonly the number of molecules, sites or subunits per partner or assembly) in assay [1] was 3.

In assay [2], “SARS-CoV-2 RBD-5GS-1TD0 (from UniProt P0DTC2 330-532) (domain or fragment)” showed a stoichiometry N of 3.
